T1: SIPA1L2, Q9P2F8
T1 sequence (Q9P2F8 945-1036, limits assumed, looked up): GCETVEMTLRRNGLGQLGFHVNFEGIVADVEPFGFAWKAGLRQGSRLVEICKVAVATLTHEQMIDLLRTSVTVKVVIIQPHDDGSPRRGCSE

T2: MPDZ_5, O75970
T2 sequence (O75970 695-796, limits assumed, looked up): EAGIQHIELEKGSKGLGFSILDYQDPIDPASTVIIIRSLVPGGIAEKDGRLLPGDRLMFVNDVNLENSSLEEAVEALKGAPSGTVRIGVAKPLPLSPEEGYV

T3: NHERF3_1, Q5T2W1
T3 sequence (Q5T2W1 4-100, limits assumed, looked up): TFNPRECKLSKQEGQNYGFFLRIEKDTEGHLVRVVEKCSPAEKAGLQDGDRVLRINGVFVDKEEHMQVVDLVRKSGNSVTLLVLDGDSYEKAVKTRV

T4: SNTA1, Q13424
T4 sequence (Q13424 82-180, limits assumed, looked up): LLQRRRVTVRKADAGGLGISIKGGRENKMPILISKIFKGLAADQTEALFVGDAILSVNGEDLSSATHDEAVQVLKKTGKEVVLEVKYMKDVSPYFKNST

T5: LIN7A, O14910
T5 sequence (O14910 103-200, limits assumed, looked up): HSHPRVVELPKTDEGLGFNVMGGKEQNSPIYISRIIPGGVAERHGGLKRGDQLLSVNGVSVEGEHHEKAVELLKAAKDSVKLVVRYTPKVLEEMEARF

T6: DFNB31_3, Q9P202
T6 sequence (Q9P202 811-907, limits assumed, looked up): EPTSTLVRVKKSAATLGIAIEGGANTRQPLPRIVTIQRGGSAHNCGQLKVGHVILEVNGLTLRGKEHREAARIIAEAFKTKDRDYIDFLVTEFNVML

T7: NHERF3_4, Q5T2W1
T7 sequence (Q5T2W1 373-468, limits assumed, looked up): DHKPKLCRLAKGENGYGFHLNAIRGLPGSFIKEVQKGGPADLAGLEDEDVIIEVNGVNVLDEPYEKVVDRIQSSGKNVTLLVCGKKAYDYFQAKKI

T8: DLG3_1, Q92796
T8 sequence (Q92796 125-227, limits assumed, looked up): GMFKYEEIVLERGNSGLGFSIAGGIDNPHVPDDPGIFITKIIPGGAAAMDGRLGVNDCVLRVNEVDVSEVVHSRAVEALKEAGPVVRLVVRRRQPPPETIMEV

T9: PCLO, Q9Y6V0
T9 sequence (Q9Y6V0 4491-4600, limits assumed, looked up): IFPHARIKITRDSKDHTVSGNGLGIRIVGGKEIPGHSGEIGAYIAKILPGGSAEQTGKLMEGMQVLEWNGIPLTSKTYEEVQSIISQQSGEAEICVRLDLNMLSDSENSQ

T10: MPP6, Q9NZW5
T10 sequence (Q9NZW5 125-219, limits assumed, looked up): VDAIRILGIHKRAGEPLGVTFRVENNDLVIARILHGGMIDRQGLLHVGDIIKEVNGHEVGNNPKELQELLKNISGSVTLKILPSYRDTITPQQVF

T11: PDZD2_2, O15018
T11 sequence (O15018 329-429, limits assumed, looked up): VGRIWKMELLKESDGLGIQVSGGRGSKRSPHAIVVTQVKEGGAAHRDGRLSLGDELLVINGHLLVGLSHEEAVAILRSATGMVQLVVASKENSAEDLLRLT


Experiments:
Test in all cases: holdup assay
Parameters in all cases: key: below the threshold = too weak to quantify, mostly under pKd 3.1 to 4
Details in all cases: plain residues with an end cap or a label only (N-terminal biotin on a linker: ado-ado)
GRID2IP_2, A4D2P6 = target: GRID2IP_2, A4D2P6
HTRA2, O43464 = target: HTRA2, O43464
SIPA1L2, Q9P2F8 = target: T1, SIPA1L2, Q9P2F8
MPDZ_5, O75970 = target: T2, MPDZ_5, O75970
GRIP2_5, Q9C0E4 = target: GRIP2_5, Q9C0E4
NHERF3_1, Q5T2W1 = target: T3, NHERF3_1, Q5T2W1
GRIP2_6, Q9C0E4 = target: GRIP2_6, Q9C0E4
SNTA1, Q13424 = target: T4, SNTA1, Q13424
GRASP, Q7Z6J2 = target: GRASP, Q7Z6J2
MAST1, Q9Y2H9 = target: MAST1, Q9Y2H9
FRMPD3, Q5JV73 = target: FRMPD3, Q5JV73
DLG1_2, Q12959 = target: DLG1_2, Q12959
NHERF2_2, Q15599 = target: NHERF2_2, Q15599
LIN7A, O14910 = target: T5, LIN7A, O14910
MAGI2_2, Q86UL8 = target: MAGI2_2, Q86UL8
DLG1_1, Q12959 = target: DLG1_1, Q12959
DFNB31_3, Q9P202 = target: T6, DFNB31_3, Q9P202
NHERF3_4, Q5T2W1 = target: T7, NHERF3_4, Q5T2W1
DLG1_3, Q12959 = target: DLG1_3, Q12959
DLG3_1, Q92796 = target: T8, DLG3_1, Q92796
CASK, O14936 = target: CASK, O14936
GOPC, Q9HD26 = target: GOPC, Q9HD26
FRMPD2_3, Q68DX3 = target: FRMPD2_3, Q68DX3
IL16_3, Q14005 = target: IL16_3, Q14005
PCLO, Q9Y6V0 = target: T9, PCLO, Q9Y6V0
MPP6, Q9NZW5 = target: T10, MPP6, Q9NZW5
PDZD2_2, O15018 = target: T11, PDZD2_2, O15018

MAST1, Q9Y2H9, sequence (Q9Y2H9 962-1065): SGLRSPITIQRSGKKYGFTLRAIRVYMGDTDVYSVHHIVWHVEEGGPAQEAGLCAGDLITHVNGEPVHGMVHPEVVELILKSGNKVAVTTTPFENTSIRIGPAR
NHERF2_2, Q15599, sequence (Q15599 142-238): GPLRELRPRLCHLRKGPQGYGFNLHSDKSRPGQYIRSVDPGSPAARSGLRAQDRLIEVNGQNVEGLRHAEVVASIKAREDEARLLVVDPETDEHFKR
CASK, O14936, sequence (O14936 487-570): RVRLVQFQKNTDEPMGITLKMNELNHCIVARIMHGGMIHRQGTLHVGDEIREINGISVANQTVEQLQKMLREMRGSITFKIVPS
FRMPD3, Q5JV73, sequence (Q5JV73 12-100): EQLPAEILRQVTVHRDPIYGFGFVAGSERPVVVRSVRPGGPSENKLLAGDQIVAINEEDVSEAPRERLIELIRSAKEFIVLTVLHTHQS
MAGI2_2, Q86UL8, sequence (Q86UL8 410-522): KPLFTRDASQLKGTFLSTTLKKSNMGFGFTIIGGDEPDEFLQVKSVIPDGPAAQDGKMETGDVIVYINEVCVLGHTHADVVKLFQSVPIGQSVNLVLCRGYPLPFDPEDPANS
GRIP2_6, Q9C0E4, sequence (Q9C0E4 648-740): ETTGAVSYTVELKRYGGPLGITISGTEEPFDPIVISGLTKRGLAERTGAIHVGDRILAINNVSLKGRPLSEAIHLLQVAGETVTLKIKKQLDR
GRASP, Q7Z6J2, sequence (Q7Z6J2 96-193): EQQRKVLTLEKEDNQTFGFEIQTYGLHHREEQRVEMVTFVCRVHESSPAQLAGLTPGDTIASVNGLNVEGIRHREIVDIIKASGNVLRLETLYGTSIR
FRMPD2_3, Q68DX3, sequence (Q68DX3 1073-1166): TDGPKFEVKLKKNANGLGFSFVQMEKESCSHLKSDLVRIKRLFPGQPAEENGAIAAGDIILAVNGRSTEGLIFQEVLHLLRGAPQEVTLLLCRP
IL16_3, Q14005, sequence (Q14005 1107-1207): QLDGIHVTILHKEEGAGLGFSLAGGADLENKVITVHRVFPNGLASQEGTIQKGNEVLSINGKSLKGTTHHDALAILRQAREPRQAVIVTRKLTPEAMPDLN
HTRA2, O43464, sequence (O43464 355-458): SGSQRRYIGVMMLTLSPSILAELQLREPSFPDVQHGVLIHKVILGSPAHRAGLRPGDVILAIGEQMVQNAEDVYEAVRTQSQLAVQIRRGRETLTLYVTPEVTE
GRIP2_5, Q9C0E4, sequence (Q9C0E4 544-642): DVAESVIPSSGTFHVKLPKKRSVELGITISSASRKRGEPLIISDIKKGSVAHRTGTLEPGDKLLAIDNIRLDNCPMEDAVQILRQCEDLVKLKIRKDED
GRID2IP_2, A4D2P6, sequence (A4D2P6 272-370): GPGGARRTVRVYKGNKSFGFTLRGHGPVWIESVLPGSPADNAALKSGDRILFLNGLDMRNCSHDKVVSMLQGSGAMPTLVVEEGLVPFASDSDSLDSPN

Binder	pKd (GRID2IP_2, A4D2P6)	pKd (HTRA2, O43464)	pKd (SIPA1L2, Q9P2F8)	pKd (MPDZ_5, O75970)	pKd (GRIP2_5, Q9C0E4)	pKd (NHERF3_1, Q5T2W1)	pKd (GRIP2_6, Q9C0E4)	pKd (SNTA1, Q13424)	pKd (GRASP, Q7Z6J2)	pKd (MAST1, Q9Y2H9)	pKd (FRMPD3, Q5JV73)	pKd (DLG1_2, Q12959)	pKd (NHERF2_2, Q15599)	pKd (LIN7A, O14910)	pKd (MAGI2_2, Q86UL8)	pKd (DLG1_1, Q12959)	pKd (DFNB31_3, Q9P202)	pKd (NHERF3_4, Q5T2W1)	pKd (DLG1_3, Q12959)	pKd (DLG3_1, Q92796)	further results
TFSRRPKTRV [CD226, Q15762]	4.16	below the threshold	below the threshold	below the threshold	below the threshold	below the threshold	below the threshold	3.79	3.98	4.24	below the threshold	below the threshold	below the threshold	below the threshold	5.31	below the threshold	below the threshold	below the threshold	below the threshold	below the threshold	pKd (CASK, O14936): below the threshold; pKd (GOPC, Q9HD26): 4.56; pKd (FRMPD2_3, Q68DX3): below the threshold; pKd (IL16_3, Q14005): below the threshold; pKd (PCLO, Q9Y6V0): below the threshold; pKd (MPP6, Q9NZW5): below the threshold; pKd (PDZD2_2, O15018): below the threshold
TNSKQGETTV [FZD1, Q9UP38]	3.79	3.55	below the threshold	below the threshold	below the threshold	below the threshold	below the threshold	4.51	below the threshold	4.32	below the threshold	5.09	3.51	3.72	4.38	4.61	4.06	below the threshold	4.13	4.37	pKd (CASK, O14936): below the threshold; pKd (GOPC, Q9HD26): 3.67; pKd (FRMPD2_3, Q68DX3): 3.74; pKd (IL16_3, Q14005): below the threshold; pKd (PCLO, Q9Y6V0): below the threshold; pKd (MPP6, Q9NZW5): below the threshold; pKd (PDZD2_2, O15018): 3.93
IQISELETNV [SLC1A7, O00341]	3.49	below the threshold	below the threshold	below the threshold	below the threshold	3.82	below the threshold	4.98	below the threshold	4.71	below the threshold	4.91	3.56	3.52	below the threshold	4.34	below the threshold	below the threshold	3.57	3.91	pKd (CASK, O14936): below the threshold; pKd (GOPC, Q9HD26): below the threshold; pKd (FRMPD2_3, Q68DX3): below the threshold; pKd (IL16_3, Q14005): below the threshold; pKd (PCLO, Q9Y6V0): below the threshold; pKd (MPP6, Q9NZW5): below the threshold; pKd (PDZD2_2, O15018): 4.97

More lines, main results first:

pKd (GRID2IP_2, A4D2P6)	pKd (HTRA2, O43464)	pKd (SIPA1L2, Q9P2F8)	pKd (MPDZ_5, O75970)	pKd (GRIP2_5, Q9C0E4)	pKd (NHERF3_1, Q5T2W1)	pKd (GRIP2_6, Q9C0E4)	pKd (SNTA1, Q13424)	pKd (GRASP, Q7Z6J2)	pKd (MAST1, Q9Y2H9)	pKd (FRMPD3, Q5JV73)	pKd (DLG1_2, Q12959)	pKd (NHERF2_2, Q15599)	pKd (LIN7A, O14910)	pKd (MAGI2_2, Q86UL8)	pKd (DLG1_1, Q12959)	pKd (DFNB31_3, Q9P202)	pKd (NHERF3_4, Q5T2W1)	pKd (DLG1_3, Q12959)	pKd (DLG3_1, Q92796)	Binder	further results
3.66	below the threshold	below the threshold	below the threshold	below the threshold	3.62	below the threshold	below the threshold	below the threshold	below the threshold	below the threshold	below the threshold	below the threshold	below the threshold	below the threshold	3.71	3.99	below the threshold	below the threshold	below the threshold	KSRPENGTVC [TMEM178B, H3BS89]	pKd (CASK, O14936): below the threshold; pKd (GOPC, Q9HD26): below the threshold; pKd (FRMPD2_3, Q68DX3): below the threshold; pKd (IL16_3, Q14005): below the threshold; pKd (PCLO, Q9Y6V0): below the threshold; pKd (MPP6, Q9NZW5): below the threshold; pKd (PDZD2_2, O15018): 3.59
3.75	below the threshold	below the threshold	below the threshold	below the threshold	below the threshold	below the threshold	below the threshold	3.97	below the threshold	below the threshold	below the threshold	below the threshold	below the threshold	below the threshold	below the threshold	4.21	below the threshold	below the threshold	below the threshold	QQGLLPHSSC [TYRO3, Q06418]	pKd (CASK, O14936): below the threshold; pKd (GOPC, Q9HD26): below the threshold; pKd (FRMPD2_3, Q68DX3): below the threshold; pKd (IL16_3, Q14005): below the threshold; pKd (PCLO, Q9Y6V0): below the threshold; pKd (MPP6, Q9NZW5): below the threshold; pKd (PDZD2_2, O15018): 3.55
